Measurements as given in article PMC8754651, “Three human RNA polymerases interact with TFIIH via a common RPB6 subunit” (Nucleic Acids Research, 2021).

B1: human TFIIH p62 PH domain (PH-D) (residues 1–108) (domain or fragment)
chain: MATSSEEVLLIVKKVRQKKQDGALYLMAERIAWAPEGKDRFTISHMYADIKCQKISPEGKAKIQLQLVLHAGDTTNFHFSNESTAVKERDAVKDLLQQLLPKFKRKAN
notes: p62 subunit of the general transcription/repair factor TFIIH, human, N-terminal pleckstrin homology (PH) domain, residues 1-108; Unlabeled, 15N-labeled or 13C/15N-labeled according to the experiment; Expressed from pET15b; a few vector residues may remain after thrombin cleavage (surmise); source: E. coli BL21 (DE3) Gold, purified (Ni-NTA, thrombin digestion, Superdex75)
B2: human RPB6 (residues 1–24), NTT peptide (peptide, UniProt P61218 1-24, looked up)
peptide: MSDNEDNFDGDDFDDVEEDEGLDD
notes: RPB6, human, N-terminal tail (NTT), residues 1-24; also called NTT peptide derived from human RPB6
B3: human RPB6 (residues 1–24) S2A (peptide, UniProt P61218 1-24, looked up)
peptide: MADNEDNFDGDDFDDVEEDEGLDD
notes: RPB6, human, N-terminal tail, residues 1-24, with Ser2 substituted to alanine; also called Ser2 alanine substitution
B4: human RPB6 (residues 1–24) F13A-V16A (peptide, UniProt P61218 1-24, looked up)
peptide: MSDNEDNFDGDDADDAEEDEGLDD
notes: RPB6, human, N-terminal tail, residues 1-24, with F13A and V16A; also called F13A-V16A double mutation
B5: human RPB6 (residues 1–24) V16A (peptide, UniProt P61218 1-24, looked up)
peptide: MSDNEDNFDGDDFDDAEEDEGLDD
notes: RPB6, human, N-terminal tail, residues 1-24, with V16A
B6: human RPB6 (residues 1–24) F13A (peptide, UniProt P61218 1-24, looked up)
peptide: MSDNEDNFDGDDADDVEEDEGLDD
notes: RPB6, human, N-terminal tail, residues 1-24, with F13A
B7: human RPB6 (residues 1–24) F8A (peptide, UniProt P61218 1-24, looked up)
peptide: MSDNEDNADGDDFDDVEEDEGLDD
notes: RPB6, human, N-terminal tail, residues 1-24, with F8A

Tests used:
[1] = target: human RPB6 (residues 1–127), full-length (human, UniProt P61218 1-127); test: NMR structure; complex at 0.38 mM, 13C/15N-labeled RPB6 with unlabeled p62 PH-D at 1.0:2.0 (and 13C/15N-labeled p62 PH-D with unlabeled RPB6); 20 mM potassium phosphate (pH 6.8), 25 mM NaCl, 5 mM deuterated DTT, 25°C; intermolecular NOEs; settings: both partners purified
[2] = target: B1; test: ITC; 100∼300 μM RPB6/Rpb6 peptide in the syringe titrated into 10–30 μM p62 PH-D in the cell; 20 mM potassium phosphate (pH 6.8) with or without 25 mM NaCl, 20°C; VP-ITC; settings: both partners purified

| binding result [2] | Binder | binding result [1] |
| --- | --- | --- |
|  | B1 | binds |
| binds | B2 |  |
| binds | B3 |  |
| binds | B4 |  |
| binds | B5 |  |
| binds | B6 |  |
| binds | B7 |  |
